Values joined by “and” are separate entries in the source; they are usually repeats but may differ in a detail not shown here. Equal entries are not always repeated. Where two headings read alike, the source gives them in different places.
Columns and labels:
[1] = molecular target: T1, human AXL on the surface of tumor cells (human, UniProt P30530 26-894); test: FACS on MDA-MB-231 cells
T1 construct: whole, on cells; endogenous protein of human tumor cell lines; the cell line is named under assay or readout; also called AXL on the cell surface
T1 sequence (looked up): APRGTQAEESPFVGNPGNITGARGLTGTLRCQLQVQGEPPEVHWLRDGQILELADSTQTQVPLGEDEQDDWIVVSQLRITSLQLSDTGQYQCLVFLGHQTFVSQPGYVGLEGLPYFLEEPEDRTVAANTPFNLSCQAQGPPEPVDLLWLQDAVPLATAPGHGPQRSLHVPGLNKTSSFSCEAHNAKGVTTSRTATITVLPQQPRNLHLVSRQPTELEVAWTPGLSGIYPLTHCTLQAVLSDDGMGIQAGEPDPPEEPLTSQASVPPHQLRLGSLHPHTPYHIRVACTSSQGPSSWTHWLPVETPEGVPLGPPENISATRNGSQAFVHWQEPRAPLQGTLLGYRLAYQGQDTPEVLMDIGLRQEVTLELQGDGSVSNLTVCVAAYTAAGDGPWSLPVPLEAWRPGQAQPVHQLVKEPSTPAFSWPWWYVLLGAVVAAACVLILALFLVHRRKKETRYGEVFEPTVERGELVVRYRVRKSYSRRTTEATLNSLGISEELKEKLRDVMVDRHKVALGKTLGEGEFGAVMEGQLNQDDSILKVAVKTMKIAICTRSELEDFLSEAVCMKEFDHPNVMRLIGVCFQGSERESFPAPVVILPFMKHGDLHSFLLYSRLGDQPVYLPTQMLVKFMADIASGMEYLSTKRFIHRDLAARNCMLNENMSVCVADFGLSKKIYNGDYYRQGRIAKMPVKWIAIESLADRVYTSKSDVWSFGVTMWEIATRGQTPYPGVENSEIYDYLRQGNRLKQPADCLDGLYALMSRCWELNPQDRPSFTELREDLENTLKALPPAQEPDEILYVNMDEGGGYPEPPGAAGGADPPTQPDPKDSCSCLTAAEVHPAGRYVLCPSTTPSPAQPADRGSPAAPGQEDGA
Description: (§1) Then the obtained solutions were incubated at 4° C. for 1 h, the cells were washed twice with PBS to remove unbound primary antibody, and then the target cells were incubated with 200 μL PE-labeled secondary antibody (2 μg/mL) at 4° C. for 30 min. The cells were washed twice with PBS to remove unbound secondary antibody. Finally, the cells were resuspended in 200 μL PBS, and the binding affinity of the test antibody to AXL on the cell surface was determined by a flow cytometer (FACSCalibur)
24 humanized antibodies in Table-6 were diluted by gradient, and their affinities to AXL, on the surface of MDA-MB-231 cells were determined by flow cytometer. The experimental method was referred to Example 8.

[2] = molecular target: T1, human AXL on the surface of tumor cells; test: FACS on MDA-MB-231 cells, mean EC50
Description: as §1

[3] = molecular target: T1, human AXL on the surface of tumor cells; test: FACS on NCI-H1299 cells
Description: as §1
AXL-high-expression lung cancer cells NCI-H1299 were used as target cells. 100 μL of the test antibody diluted in a 3-fold gradient was used as primary antibody, and mixed with 1×10⁵ NCI-H1299 cells suspended in 100 μL RPMI-1640 serum-free medium. The operation method was the same as above. Finally, the cells were resuspended in 200 μL PBS, and the binding affinity of the tested antibody to AXL on the cell surface was determined by a flow cytometer (FACSAria II).

[4] = molecular target: T2, extracellular domain of human AXL protein (AXL-ECD) (human, UniProt P30530 31-449); test: ELISA, plate-coated AXL-ECD
T2 construct: expressed in HEK293T cells; coated on the ELISA plate; also called AXL-ECD protein; human AXL extracellular domain protein
T2 sequence: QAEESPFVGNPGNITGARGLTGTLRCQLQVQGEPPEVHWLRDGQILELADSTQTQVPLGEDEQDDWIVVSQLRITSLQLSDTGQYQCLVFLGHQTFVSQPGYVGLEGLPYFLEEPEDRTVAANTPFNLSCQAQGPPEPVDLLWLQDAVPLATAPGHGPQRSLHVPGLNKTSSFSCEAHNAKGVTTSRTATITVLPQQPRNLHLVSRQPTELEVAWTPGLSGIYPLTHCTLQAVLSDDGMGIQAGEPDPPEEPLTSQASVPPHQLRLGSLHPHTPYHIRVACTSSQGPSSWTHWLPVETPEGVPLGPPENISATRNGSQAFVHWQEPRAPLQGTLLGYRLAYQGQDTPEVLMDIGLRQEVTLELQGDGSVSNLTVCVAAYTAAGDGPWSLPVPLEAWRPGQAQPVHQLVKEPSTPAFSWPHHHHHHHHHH
Description: (§2) The extracellular domain of AXL protein (AXL-ECD) was diluted to […] with the coating solution, and coated onto ELISA plate with 100 μL/well at 4° C. overnight. The excess antigen was washed off. The plate was blocked with 1% BSA at room temperature for 2 h, then each monoclonal antibody in a 3-fold dilution was added at 100 µL/well. The plate was incubated at room temperature for 1 h; the unbound antibody was washed off, and appropriate concentration of anti-mouse secondary antibody labeled with horseradish peroxidase was added at 100 µL/well. The plate was incubated at room temperature for 0.5 h. The unbound secondary antibody was washed off. TMB Substrate was added and reacted for about 15 minutes. 1N HCL was added at 50 µL/well to stop the color reaction. Then the absorbance was measured at 450 nm and the obtained data was analyzed.

[5] = molecular target: T1, human AXL on the surface of tumor cells; test: FACS, 5 ug/mL antibody, NCI-H1299 cells compared with AXL-low MDA-MB-453 cells
Description: (§3) 3×10⁵ tumor cells were mixed well with the antibody (final concentration was 5 μg/mL), and then incubated at 4° C. for 1 hour. The cells were washed twice with PBS to remove unbound primary antibody. Then 200 μL ([…]) PE-labeled secondary antibody was added and incubated at 4° C. for 30 min. The cells were washed twice with PBS to remove unbound secondary antibodies. Finally, the cells were resuspended in 200 μL PBS. The Binding affinity of the tested antibody to AXL on the cell surface or the overall binding fluorescence intensity (MFI) of different tumor cells at the same antibody concentration was determined with a flow cytometer (FACSCalibur).
(§4) The chimeric antibody mAb002c could specifically recognize and bind tumor cells with AXL high expression.

[6] = molecular target: T1, human AXL on the surface of tumor cells; test: FACS, 5 ug/mL antibody, LCLC-103H cells compared with AXL-low MDA-MB-453 cells
Description: as §3, §4

[7] = molecular target: T1, human AXL on the surface of tumor cells; test: FACS on MDA-MB-231 cells; remark: listed apart in the source
Description: as §1

[8] = molecular target: T2, extracellular domain of human AXL …; test: ELISA, plate-coated AXL-ECD; remark: listed apart in the source
Description: as §2
24 humanized antibodies in Table-6 were diluted by gradient, and their affinity to AXL-ECD protein was determined by ELISA. The experimental method was referred to Example 4.

[9] = molecular target: T2, extracellular domain of human AXL …; test: ELISA, AXL-ECD
[10] = molecular target: T1, human AXL on the surface of tumor cells; test: FACS on LCLC-103H cells
Description: as §1
The experimental method was referred to Example 8.

[11] = molecular target: T3, cynomolgus monkey AXL on the surface of HEK-293T cells (cynomolgus monkey); test: FACS on HEK293T cells transiently expressing monkey AXL
T3 construct: transiently expressed in HEK293T cells from pcDNA3.1
Description: 3. HEK293T cells were spread to a 50% density in a culture dish, and cultured overnight at 37° C. to a confluence of about 80%. […] of monkey/mouse-AXL vector plasmid prepared above was transiently transfected into the cells with Liposome Lipo2000 (Invitrogen). 24 hours after transfection, the proteins were collected for Western blot analysis, and the cells were collected for FACS to detect the binding activity of Hu002-2 and monkey/mouse AXL on HEK293T cell surface. The FACS detection test method may be referred to Example 18.

B1: mAb002c (antibody, V domains shown)
VH: QIQLQQSGPELVKPGASVKISCKASGYPFTDFYINWVKQKPGQGLEWIGWIYPGSGNTKYNEKFKGKATLTVDTSSSTAYMQLSSLTSEDTAVYFCARSTGFFDYWGQGTTLTVSS
VL: QIVLTQSPALMSASPGEKVTMTCSASSSIGYMYWYQQKPRSSPKSWIYLTSNLASGVPARFSGSGSGTSYSLTISSMEAEDAATYYCQQWSSNPPTFGAGTKLELK
notes: also called human-mouse chimeric antibody mAb002c
[1]
  EC50: 160 pM and 169 pM
[2]
  EC50: 174 pM
[3]
  EC50: 456 pM
  Highest MFI value (FACSAria II): 2260 MFI
[4]
  EC50: 73 pM
  Highest reading (OD450 nm): 3.79 OD450 nm
[5]
  fold difference of binding rate (MFI) against MDA-MB-453 cells: 127 times
[6]
  fold difference of binding rate (MFI) against MDA-MB-453 cells: 91 times
[7]
  Highest MFI value (FACSCalibur): 242 MFI
[8]
  EC50: 82 pM and 76 pM

B2: mAb002 (antibody, V domains shown)
VH: QIQLQQSGPELVKPGASVKISCKASGYPFTDFYINWVKQKPGQGLEWIGWIYPGSGNTKYNEKFKGKATLTVDTSSSTAYMQLSSLTSEDTAVYFCARSTGFFDYWGQGTTLTVSS
VL: QIVLTQSPALMSASPGEKVTMTCSASSSIGYMYWYQQKPRSSPKSWIYLTSNLASGVPARFSGSGSGTSYSLTISSMEAEDAATYYCQQWSSNPPTFGAGTKLELK
notes: murine hybridoma antibody, IgG1/k; also called original murine antibody mAb002
[9]
  EC50: 63 pM

B3: mAb005 (antibody, V domains shown)
VH: QVQLQQSGPELVKPGASVKISCKASGYSFTSYYIHWVQQRPGQGLEWIGWIYPGSDNTKYNEKFKDKATLTADTSSGTAYMQLSSLTSDDSAVFYCARNYYDYDGGTWFPYWGQGTLVTVSA
VL: DIQMTQTTSSLSASLGDRVTISCRASQDINYYLNWYQQKPDGTVKLLIYYTSRLHSRVPSRFSGSGSGTDYSLTISNLEQEDIATYFCQQGNTLPWTFGGGTKLEIK
notes: murine hybridoma antibody, IgG1/k; also called original murine antibody mAb005
[9]
  EC50: 92 pM

B4: Hu002-2 (antibody, V domains shown)
VH: QVQLVQSGAEVKKPGASVKVSCKASGYPFTDFYINWVRQAPGQGLEWMGWIYPGSGNTKYNEKFKGRVTLTVDTSISTAYMELSRLRSDDTAVYYCARSTGFFDYWGQGTLVTVSS
VL: EIVLTQSPATLSLSPGERATLSCSASSSIGYMYWYQQKPGQAPRLLIYLTSNLASGIPARFSGSGSGTDFTLTISSLEPEDFAVYYCQQWSSNPPTFGQGTKLEIK
notes: humanized from mAb002c; also called Hu002c-2
[10]
  EC50: 370 pM
[1]
  EC50: 112 pM
  Highest MFI value (FACSCalibur): 278 MFI
[11]
  EC50: 135 pM
[8]
  EC50: 55 pM
  TOP (OD450): 3.6 OD450

— patent US20210214447A1 (SHANGHAI INSTITUTE OF MATERIA MEDICA CHINESE ACADEMY OF …, published 2021)
